According to article doi:10.1101/2022.01.14.473406:
Read-outs that look alike come from different tables or passages of the source. One block for each molecule: values may come before it.

Tests used:
[1] = target: AP-Endonuclease 1 (APE1) (human) (UniProt P27695); experiment: SPR
[2] = target: T1, DNA ligase I EE/AA (C-terminal, delta261) (Homo sapiens, UniProt P18858 262-919, E346A;E592A); experiment: X-ray crystallography
[3] = target: T1, DNA ligase I EE/AA (C-terminal, …); experiment: X-ray crystallography; remark: listed apart in the source

T1 sequence (P18858 262-919 E346A/E592A): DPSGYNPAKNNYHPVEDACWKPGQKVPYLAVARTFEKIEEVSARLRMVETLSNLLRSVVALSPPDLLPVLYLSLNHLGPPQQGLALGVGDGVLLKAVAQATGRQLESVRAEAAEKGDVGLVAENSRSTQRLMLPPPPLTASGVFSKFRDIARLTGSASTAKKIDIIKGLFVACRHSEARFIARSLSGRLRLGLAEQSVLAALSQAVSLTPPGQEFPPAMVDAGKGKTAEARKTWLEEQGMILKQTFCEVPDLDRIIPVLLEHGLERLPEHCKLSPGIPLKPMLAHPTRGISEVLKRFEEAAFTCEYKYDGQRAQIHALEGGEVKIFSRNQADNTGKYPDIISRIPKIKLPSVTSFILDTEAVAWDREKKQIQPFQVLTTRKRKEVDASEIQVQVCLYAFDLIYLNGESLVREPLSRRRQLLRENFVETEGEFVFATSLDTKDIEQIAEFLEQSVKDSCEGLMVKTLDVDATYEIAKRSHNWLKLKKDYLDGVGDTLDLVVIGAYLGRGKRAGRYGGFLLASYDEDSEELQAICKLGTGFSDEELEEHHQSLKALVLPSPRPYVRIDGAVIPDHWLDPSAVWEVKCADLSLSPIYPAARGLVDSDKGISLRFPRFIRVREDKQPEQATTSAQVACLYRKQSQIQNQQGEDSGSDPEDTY
Sequence of AP-Endonuclease 1 (APE1) (human) (P27695 whole entry): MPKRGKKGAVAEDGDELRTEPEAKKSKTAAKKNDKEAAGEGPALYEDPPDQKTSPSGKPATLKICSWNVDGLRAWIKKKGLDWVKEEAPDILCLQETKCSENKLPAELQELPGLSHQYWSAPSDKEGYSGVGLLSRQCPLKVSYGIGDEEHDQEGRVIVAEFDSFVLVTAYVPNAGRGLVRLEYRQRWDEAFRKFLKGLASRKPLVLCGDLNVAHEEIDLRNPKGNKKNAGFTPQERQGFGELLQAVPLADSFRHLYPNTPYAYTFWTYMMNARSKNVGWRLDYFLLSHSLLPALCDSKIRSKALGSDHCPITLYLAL

Kd [1]: 117 nM
Molecule: DNA ligase I (LIG1) (from UniProt P18858 1-919) (enzyme)

B1: nick DNA 3'-dG:T (dsDNA)
DNA 1: GCTGATGCGTG
DNA 2: GTCGGAC
DNA 3: GTCCGACTACGCATCAGC
modifications: 5'-phosphate on downstream strand; 5'-adenylated (DNA-AMP) in crystal
binding result [2]: binds

B2: nick DNA 3'-dA:C (dsDNA)
DNA 1: GCTGATGCGTA
DNA 2: GTCGGAC
DNA 3: GTCCGACCACGCATCAGC
modifications: 5'-phosphate on downstream strand
binding result [3]: binds

B3: nick DNA 3'-dA:T (dsDNA)
DNA 1: GCTGATGCGTA
DNA 2: GTCGGAC
DNA 3: GTCCGACTACGCATCAGC
modifications: 5'-phosphate on downstream strand; 5'-adenylated (DNA-AMP) in crystal
binding result [2]: binds
